The source of these data is patent publication US20200164114A1.

What is called IC50 is the concentration needed to halve the response being measured. Low values mean inhibition by little substance, high ones a need for much substance.

For test [1], the target named is integrin αIIbβ3 on CHO cells (CHO-αIIbβ3) (UniProt P08514). Put plainly: cell adhesion inhibition: CHO-αIIbβ3 cells to immobilized fibrinogen.
The target in test [2] is integrin αIIbβ3 on human platelets (human) (UniProt P08514). The test is described as follows: cell-based or functional assay.
The target in test [3] is integrin αvβ3 on CHO cells (CHO-αvβ3) (UniProt P06756). Put plainly: cell adhesion inhibition: CHO-αvβ3 cells to immobilized fibrinogen.

Chain of integrin αIIbβ3 on human platelets (human) (P08514 32-1039, chain 1 of 2): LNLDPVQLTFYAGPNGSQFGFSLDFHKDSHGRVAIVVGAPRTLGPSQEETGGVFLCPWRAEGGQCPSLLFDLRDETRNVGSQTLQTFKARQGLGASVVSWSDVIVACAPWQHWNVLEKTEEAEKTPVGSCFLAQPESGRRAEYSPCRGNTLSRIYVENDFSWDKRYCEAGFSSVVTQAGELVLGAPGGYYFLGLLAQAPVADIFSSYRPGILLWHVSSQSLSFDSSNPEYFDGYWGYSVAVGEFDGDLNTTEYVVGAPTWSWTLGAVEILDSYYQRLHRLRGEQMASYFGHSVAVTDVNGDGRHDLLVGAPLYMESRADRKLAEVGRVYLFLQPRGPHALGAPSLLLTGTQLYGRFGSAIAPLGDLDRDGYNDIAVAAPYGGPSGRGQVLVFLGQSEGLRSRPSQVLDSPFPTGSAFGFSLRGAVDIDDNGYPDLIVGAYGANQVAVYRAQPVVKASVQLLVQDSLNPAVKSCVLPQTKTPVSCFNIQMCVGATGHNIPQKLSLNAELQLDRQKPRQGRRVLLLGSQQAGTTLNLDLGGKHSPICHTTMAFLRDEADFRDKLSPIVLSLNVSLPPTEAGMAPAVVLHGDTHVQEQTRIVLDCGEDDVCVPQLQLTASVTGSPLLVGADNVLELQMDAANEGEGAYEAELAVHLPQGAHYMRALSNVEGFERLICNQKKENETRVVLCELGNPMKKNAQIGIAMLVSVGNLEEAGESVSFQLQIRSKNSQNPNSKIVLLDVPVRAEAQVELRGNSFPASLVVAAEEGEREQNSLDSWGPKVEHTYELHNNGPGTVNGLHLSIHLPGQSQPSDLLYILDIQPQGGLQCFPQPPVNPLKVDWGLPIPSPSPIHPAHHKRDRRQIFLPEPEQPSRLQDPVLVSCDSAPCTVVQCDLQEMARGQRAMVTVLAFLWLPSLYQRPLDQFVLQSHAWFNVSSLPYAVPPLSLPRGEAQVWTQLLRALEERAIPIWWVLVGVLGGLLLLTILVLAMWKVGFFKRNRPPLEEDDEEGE
Chain of integrin αIIbβ3 on human platelets (human) (P05106 27-788, chain 2 of 2, further chain): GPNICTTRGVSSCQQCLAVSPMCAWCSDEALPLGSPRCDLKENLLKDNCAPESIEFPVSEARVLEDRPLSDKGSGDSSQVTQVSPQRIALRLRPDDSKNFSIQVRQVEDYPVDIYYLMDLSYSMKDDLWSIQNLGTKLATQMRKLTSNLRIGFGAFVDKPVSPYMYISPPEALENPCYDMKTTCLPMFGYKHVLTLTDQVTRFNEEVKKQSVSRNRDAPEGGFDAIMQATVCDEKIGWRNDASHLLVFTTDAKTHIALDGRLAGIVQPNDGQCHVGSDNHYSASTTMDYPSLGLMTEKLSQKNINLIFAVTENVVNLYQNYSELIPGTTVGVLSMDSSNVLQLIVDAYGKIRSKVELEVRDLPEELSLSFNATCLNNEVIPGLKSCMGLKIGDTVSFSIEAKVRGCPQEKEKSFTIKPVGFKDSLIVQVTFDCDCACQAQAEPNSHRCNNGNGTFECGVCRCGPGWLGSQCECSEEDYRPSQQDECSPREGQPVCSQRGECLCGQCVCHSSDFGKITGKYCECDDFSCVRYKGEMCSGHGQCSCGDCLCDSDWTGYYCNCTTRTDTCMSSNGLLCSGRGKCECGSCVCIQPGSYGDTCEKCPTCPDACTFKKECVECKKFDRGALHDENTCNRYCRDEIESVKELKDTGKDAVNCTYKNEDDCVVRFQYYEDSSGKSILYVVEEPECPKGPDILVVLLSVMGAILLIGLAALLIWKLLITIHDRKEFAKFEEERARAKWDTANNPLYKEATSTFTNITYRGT

For the substance rhodostomin, the 50% inhibitory concentration (IC50) in test [1] came out at 0.0595 µM. In addition, in test [2], the Platelet Aggregation IC50 is 0.0832 µM; the Platelet aggregation IC50 (nM), ADP turned out to be 81.5 nM; the Platelet aggregation IC50 (nM), Collagen stood at 66.8 nM. Moreover, the IC50 in test [3] was determined as 0.013 µM.
Substance rhodostomin mutant R/K showed an IC50 in test [1] of 0.0898 µM. The Platelet aggregation IC50 (nM), ADP in test [2] worked out at 152 nM.
For trimucrin (TMV-7), in test [2], the Platelet aggregation IC50 (nM), ADP is 184 nM and the Platelet aggregation IC50 (nM), Collagen stood at 83.8 nM.
In test [1], trimucrin T/KRRR mutant yielded an IC50 of 6.58 µM. For the same substance, in test [2], the Platelet Aggregation IC50 turned out to be 0.127 µM; the Platelet aggregation IC50 (nM), ADP was 127 nM; the Platelet aggregation IC50 (nM), Collagen was 30.6 nM.
In test [1], trimucrin mutant T/IEEGK registered an IC50 of 97.6 µM. In test [2], this substance yielded a Platelet aggregation IC50 (nM), ADP of 1050 nM and a Platelet aggregation IC50 (nM), Collagen of 217 nM.
For trimucrin mutant T/IEEGKRR, in that order: 33.8 µM, 511 nM and 57.5 nM.
For trimucrin mutant T/IEEGKS, in that order: over 195 µM, 563 nM and 632 nM.
For trimucrin mutant T/K, in test [1], the concentration for half-maximal inhibition (IC50) was determined as 27.3 µM. In test [2], this substance showed a Platelet aggregation IC50 (nM), ADP of 563 nM and a Platelet aggregation IC50 (nM), Collagen of 105 nM.
Turning to trimucrin mutant T/KF, the IC50 in test [1] is 5.55 µM. In test [2], this substance came in with a Platelet aggregation IC50 (nM), ADP of 154 nM and a Platelet aggregation IC50 (nM), Collagen of 68.9 nM.
On to trimucrin mutant T/KFRFH, for which the IC50 in test [1] came out at 3.19 µM. In addition, in test [2], the Platelet aggregation IC50 (nM), ADP is 120 nM and the Platelet aggregation IC50 (nM), Collagen was found to be 63.1 nM.
For trimucrin mutant T/KH the same measures were 15.7 µM, 382 nM and 99.3 nM.
trimucrin mutant T/KHR had an IC50 in test [1] of 5.99 µM. Further, in test [2], the Platelet aggregation IC50 (nM), ADP is 256 nM and the Platelet aggregation IC50 (nM), Collagen amounted to 80.1 nM.
With trimucrin mutant T/KR, in test [1], the IC50 amounted to 6.31 µM. In addition, in test [2], the Platelet aggregation IC50 (nM), ADP was 141 nM and the Platelet aggregation IC50 (nM), Collagen was determined as 49.9 nM.
For trimucrin mutant T/KRKR, the IC50 in test [1] was found to be 13.9 µM. Further, in test [2], the Platelet aggregation IC50 (nM), ADP was 138 nM.
In test [1], trimucrin mutant T/KRR displayed an IC50 of 7.33 µM. Moreover, in test [2], the Platelet aggregation IC50 (nM), ADP turned out to be 213 nM and the Platelet aggregation IC50 (nM), Collagen was found to be 30.9 nM.
For trimucrin mutant T/KRRFH the same measures were 5.6 µM, 192 nM and 66.9 nM.
For trimucrin mutant T/KS, in that order: 39.9 µM, 1080 nM and 562 nM.
As to trimucrin mutant T/KWN, in test [1], the half-maximal inhibitory concentration (IC50) is 1.78 µM. In test [2], this substance gave a Platelet aggregation IC50 (nM), ADP of 125 nM and a Platelet aggregation IC50 (nM), Collagen of 67.7 nM.
For trimucrin mutant T/KWNR, in that order: over 0.692 µM, 54.6 nM and 52.4 nM.
For trimucrin mutant T/KWR the same measures were 0.29 µM, 106 nM and 26.3 nM.
As to trimucrin mutant T/KY, in test [1], the IC50 was 3.3 µM. In test [2], this substance gave a Platelet aggregation IC50 (nM), ADP of 246 nM and a Platelet aggregation IC50 (nM), Collagen of 44.9 nM.
As for trimucrin mutant T/KYR, the IC50 in test [1] came to 1.46 µM. In test [2], this substance displayed a Platelet aggregation IC50 (nM), ADP of 117 nM and a Platelet aggregation IC50 (nM), Collagen of 61 nM.
For trimucrin mutant T/MGKWN the same measures were 1.72 µM, 78 nM and 48.5 nM.
